The target in experiment [1] is T1, Canine IL-31RA ECD-10His (canine).
T1 construct: made in HEK-293 or CHO cells and coated on the ELISA plates; also called canine IL-31 receptor alpha extracellular domain HIS-tagged protein; cIL-31RA
T1 chain: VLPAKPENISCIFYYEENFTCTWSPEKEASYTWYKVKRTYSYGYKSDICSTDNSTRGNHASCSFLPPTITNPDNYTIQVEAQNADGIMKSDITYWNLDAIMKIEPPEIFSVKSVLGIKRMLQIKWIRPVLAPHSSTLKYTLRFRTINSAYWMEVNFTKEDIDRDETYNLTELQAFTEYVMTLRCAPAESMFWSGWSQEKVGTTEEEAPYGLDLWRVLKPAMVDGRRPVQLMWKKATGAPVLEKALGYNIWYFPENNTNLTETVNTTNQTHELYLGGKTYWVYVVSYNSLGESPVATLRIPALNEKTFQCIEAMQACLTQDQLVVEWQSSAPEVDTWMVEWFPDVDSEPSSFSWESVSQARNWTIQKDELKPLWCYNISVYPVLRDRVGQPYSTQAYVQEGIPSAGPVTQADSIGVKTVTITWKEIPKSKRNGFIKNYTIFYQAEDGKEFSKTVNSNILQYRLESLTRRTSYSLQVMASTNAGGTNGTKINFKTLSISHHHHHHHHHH
Briefly: ELISA (FIG. 6C). (In general: In an ELISA, binding on a coated surface is turned into a signal by an enzyme label.)

The target of experiment [2] is T1, Canine IL-31RA ECD-10His. As to the kind of experiment: ELISA (FIG. 6A).

Substitutions are numbered along the chain they refer to.

B1: caninized 44E2VH2VK2 (antibody, V domains shown)
VH: EVQLVESGGDLVKPEGSLRLSCVVSGFSLTSNGVSWVRQAPGKGLQWIAAISSGGSTYYNSVLKSRLTISRDNAKNTLYLQMNSLRTEDTAVYYCARRLSGYNYVPFAYWGQGTLVTVSS
VL: EIVMTQSPASLSLSQEEKVTITCKASQNIYKHLAWYQQKPGQAPKLLIYNANSLQTGIPSRFSGSGSGTDFSFTISSLEPEDVAVYFCQQYYSGDTFGAGTKVELKR
notes: Caninized antibody, canine IgG-Bm heavy chain and canine kappa light chain; also called c44E2; c44E2VH2-cIgGBm + c44E2VK2-cCK
With B1, the binding result with Canine IL-31RA ECD-10His [1] is “binds”.

B2: caninized 44E2VH5VK1 (antibody, V domains shown)
VH: ELTLQESGPGLVKPSQTLSLTCTVSGFSLTSNGVSWIRQRPGRGLEWMGAISSGGSTYYNSVLKSRISITADTAKNQFSLQLSSMTTEDTAVYYCARRLSGYNYVPFAYWGQGTLVTVSS
VL: B1 VL with I58V, F87Y
notes: Caninized antibody, canine IgG-Bm heavy chain and canine kappa light chain; also called c44E2VH5-cIgGBm + c44E2VK1-cCK
For B2, in the experiment with Canine IL-31RA ECD-10His [1], the binding result was “binds”.

B3: caninized 44E2VH5VK2 (antibody, V domains shown)
VH: B2 VH
VL: B1 VL
notes: Caninized antibody, canine IgG-Bm heavy chain and canine kappa light chain; also called c44E2; c44E2VH5-cIgGBm + c44E2VK2-cCK
On to B3, for which, in the experiment with Canine IL-31RA ECD-10His [1], the binding result is “binds”.

B4: caninized 44E2VH4VK1 (antibody, V domains shown)
VH: B2 VH with T23V, F27G, L29V
VL: B1 VL with I58V, F87Y
notes: Caninized antibody, canine IgG-Bm heavy chain and canine kappa light chain; also called c44E2VH4-cIgGBm + c44E2VK1-cCK
Turning to B4, the binding result with Canine IL-31RA ECD-10His [1] was “binds”.

B5: caninized 10A12VH1VL5 (antibody, V domains shown)
VH: EVQLVESGGDLVKPGGSLRLSCVASGFTFSNYYMAWVRQAPGKGLQWVASISTGGGNTYYRDSVKGRFTISRDNAKNTLYLQMNSLRAEDTAMYYCAKHGTLYFDYWGQGTLVTVSS
VL: QPVLTQPPSLSASLGTTARLTCERSSGDIGDSYVSWYQQKPGSPPRDLLYVDDQRPSGVSKSFSGSKDTSANAGLLLISGLQPEDEADYYCQSYDSNIDGPVFGGGTHLTVLG
notes: Caninized antibody, canine IgG-Bm heavy chain and canine lambda light chain; also called c10A12VH1-cIgGBm + c10A12VL5-cCL
Regarding B5, the binding result with Canine IL-31RA ECD-10His [2] is “binds”.

B6: caninized 10A12VH1VL6 (antibody, V domains shown)
VH: B5 VH
VL: B5 VL with L48V, L49I, G58E, Y90F
notes: Caninized antibody, canine IgG-Bm heavy chain and canine lambda light chain; also called c10A12VH1-cIgGBm + c10A12VL6-cCL
Turning to B6, in the experiment with Canine IL-31RA ECD-10His [2], the binding result was “binds”.

B7: caninized 10A12VH2VL5 (antibody, V domains shown)
VH: B5 VH with V23A, K98R
VL: B5 VL
notes: Caninized antibody, canine IgG-Bm heavy chain and canine lambda light chain; also called c10A12VH2-cIgGBm + c10A12VL5-cCL
Regarding B7, in the experiment with Canine IL-31RA ECD-10His [2], the binding result is recorded as “binds”.

B8: caninized 10A12VH2VL6 (antibody, V domains shown)
VH: B5 VH with V23A, K98R
VL: B5 VL with L48V, L49I, G58E, Y90F
notes: Caninized antibody, canine IgG-Bm heavy chain and canine lambda light chain; also called c10A12; c10A12VH2-cIgGBm + c10A12VL6-cCL
In the case of B8, the binding result with Canine IL-31RA ECD-10His [2] is reported as “binds”.

Values taken from US20230391879A1 (INTERVET, published 2023).
